# Biological target: T1, cMet-Fc fusion protein (extracellular domain of the cMet receptor expressed as an Fc-fusion protein) (human, UniProt P08581 25-932)
# T1 construct: extracellular domain; also called soluble cMet-Fc-fusion protein; soluble cMet receptor; not shown: Fc part
# Experiment: phage ELISA on cMet-Fc, competitor HGF 500 ng/mL
# Description: (§1) These assays were conducted using the peptide-displaying phage discovered from the initial selection and screening campaigns using the first generation peptide libraries. Briefly, 96-well plates were coated overnight at 4 C with 0.5 μg/mL of cMet-Fc fusion protein or TRAIL-Fc fusion protein (background). The plates were blocked for 2 hours at 37 C with 3% BSA in PBST. […] This was followed by an addition of 30 μL of peptide-displaying phage overnight culture to each well. The plates were incubated for 2 hours at room temperature, washed with PBST and cMet-binding peptide-displaying phage was detected using an HRP-conjugated anti-M13 antibody.
# T1 sequence (P08581 25-932): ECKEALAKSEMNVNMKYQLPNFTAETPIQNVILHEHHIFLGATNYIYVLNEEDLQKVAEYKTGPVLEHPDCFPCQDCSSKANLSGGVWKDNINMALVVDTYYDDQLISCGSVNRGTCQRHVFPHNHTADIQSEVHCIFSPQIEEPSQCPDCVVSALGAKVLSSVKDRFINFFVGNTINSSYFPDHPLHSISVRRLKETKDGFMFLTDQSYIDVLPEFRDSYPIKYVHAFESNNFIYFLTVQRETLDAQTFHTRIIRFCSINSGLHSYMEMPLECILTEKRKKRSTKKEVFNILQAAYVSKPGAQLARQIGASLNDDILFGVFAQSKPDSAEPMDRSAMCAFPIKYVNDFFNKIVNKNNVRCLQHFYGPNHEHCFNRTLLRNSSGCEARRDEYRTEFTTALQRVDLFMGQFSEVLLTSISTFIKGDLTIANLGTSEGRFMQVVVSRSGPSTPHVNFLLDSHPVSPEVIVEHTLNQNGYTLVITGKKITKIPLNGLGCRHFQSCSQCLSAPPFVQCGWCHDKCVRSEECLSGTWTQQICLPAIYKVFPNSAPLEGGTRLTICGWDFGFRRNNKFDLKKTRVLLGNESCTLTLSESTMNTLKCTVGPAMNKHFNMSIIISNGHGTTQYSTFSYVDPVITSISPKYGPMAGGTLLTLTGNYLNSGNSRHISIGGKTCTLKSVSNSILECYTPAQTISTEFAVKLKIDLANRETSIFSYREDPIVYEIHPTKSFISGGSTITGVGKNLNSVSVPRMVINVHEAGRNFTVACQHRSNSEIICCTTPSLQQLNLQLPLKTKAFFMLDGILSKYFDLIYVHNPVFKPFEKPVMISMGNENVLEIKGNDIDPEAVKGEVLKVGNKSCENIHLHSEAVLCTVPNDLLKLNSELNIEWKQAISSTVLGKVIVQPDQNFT
row,Binder,% of binding in the absence of HGF
1,AGWTWCDLSMMSCIFHGT [573-E07 peptide-displaying phage (SEQ ID NO: 025)],82%
2,AGFWDCGWMMQDCHMHGT [470-C02 peptide-displaying phage (SEQ ID NO: 045)],227%
3,AGKQWCVVWEETCDQLGT [465-F10 peptide-displaying phage (SEQ ID NO: 039)],42%
4,AGLLGCWDMPMECTGEGT [465-B11 peptide-displaying phage (SEQ ID NO: 036)],89%
5,AGIWFCNNEEKSCWAYGT [471-A11 peptide-displaying phage (SEQ ID NO: 040)],80%
6,AGGHWCLELKHLCPPYGT [465-B06 peptide-displaying phage (SEQ ID NO: 044)],57%
7,AGQMWCAEKNSKCYQWGT [465-D12 peptide-displaying phage (SEQ ID NO: 030)],0%
8,AGHFECPKHQYMCDMPGT [465-D04 peptide-displaying phage (SEQ ID NO: 042)],31%
9,GSMLMCELWWCRFLAP [569-H10 peptide-displaying phage (SEQ ID NO: 004)],83%
10,AGPLFCFEWPSLCHWGGT [448-H02 peptide-displaying phage (SEQ ID NO: 033)],92%
11,AGHTICQHKALGCPANGT [465-C07 peptide-displaying phage (SEQ ID NO: 041)],138%
12,AGPYSCHSESHDCKLMGT [465-C01 peptide-displaying phage (SEQ ID NO: 032)],23%
13,AGKTVCQKWESVCSGMGT [465-C11 peptide-displaying phage (SEQ ID NO: 038)],4%
14,GSWRFCGGEYSFQVCQDVAP [545-C02 peptide-displaying phage (SEQ ID NO: 365)],31%

# Biological target: T2, human cMet expressed on 3T3 cells (human, UniProt P08581 25-1390)
# T2 construct: whole, on cells; cells fixed with glutaraldehyde; also called cell surface-expressed human cMet; 3T3 cells that over-express human cMet
# Experiment: whole cell phage ELISA, 3T3 human cMet vs 3T3
# Description: Whole cell ELISAs were performed using 3T3 cells that over-express human cMet. […] Briefly, 96-well plates were seeded with 10⁵ cells per well. The plates were centrifuged for 5 minutes at 1600 rpm to pellet the cells. The resulting cell layer was fixed with 0.1% (v/v) glutaraldehyde for 12 minutes at 37 C. […] Peptide-displaying phage also were blocked in the above solution for 1 hour at 37 C. 100 μL of blocked phage was then added to each well and the plates were incubated for 1 hour at room temperature. The plates were washed with PBST. cMet-binding peptide-displaying phage were detected using an HRP-conjugated anti-M13 antibody.
# T2 sequence (P08581 25-1390): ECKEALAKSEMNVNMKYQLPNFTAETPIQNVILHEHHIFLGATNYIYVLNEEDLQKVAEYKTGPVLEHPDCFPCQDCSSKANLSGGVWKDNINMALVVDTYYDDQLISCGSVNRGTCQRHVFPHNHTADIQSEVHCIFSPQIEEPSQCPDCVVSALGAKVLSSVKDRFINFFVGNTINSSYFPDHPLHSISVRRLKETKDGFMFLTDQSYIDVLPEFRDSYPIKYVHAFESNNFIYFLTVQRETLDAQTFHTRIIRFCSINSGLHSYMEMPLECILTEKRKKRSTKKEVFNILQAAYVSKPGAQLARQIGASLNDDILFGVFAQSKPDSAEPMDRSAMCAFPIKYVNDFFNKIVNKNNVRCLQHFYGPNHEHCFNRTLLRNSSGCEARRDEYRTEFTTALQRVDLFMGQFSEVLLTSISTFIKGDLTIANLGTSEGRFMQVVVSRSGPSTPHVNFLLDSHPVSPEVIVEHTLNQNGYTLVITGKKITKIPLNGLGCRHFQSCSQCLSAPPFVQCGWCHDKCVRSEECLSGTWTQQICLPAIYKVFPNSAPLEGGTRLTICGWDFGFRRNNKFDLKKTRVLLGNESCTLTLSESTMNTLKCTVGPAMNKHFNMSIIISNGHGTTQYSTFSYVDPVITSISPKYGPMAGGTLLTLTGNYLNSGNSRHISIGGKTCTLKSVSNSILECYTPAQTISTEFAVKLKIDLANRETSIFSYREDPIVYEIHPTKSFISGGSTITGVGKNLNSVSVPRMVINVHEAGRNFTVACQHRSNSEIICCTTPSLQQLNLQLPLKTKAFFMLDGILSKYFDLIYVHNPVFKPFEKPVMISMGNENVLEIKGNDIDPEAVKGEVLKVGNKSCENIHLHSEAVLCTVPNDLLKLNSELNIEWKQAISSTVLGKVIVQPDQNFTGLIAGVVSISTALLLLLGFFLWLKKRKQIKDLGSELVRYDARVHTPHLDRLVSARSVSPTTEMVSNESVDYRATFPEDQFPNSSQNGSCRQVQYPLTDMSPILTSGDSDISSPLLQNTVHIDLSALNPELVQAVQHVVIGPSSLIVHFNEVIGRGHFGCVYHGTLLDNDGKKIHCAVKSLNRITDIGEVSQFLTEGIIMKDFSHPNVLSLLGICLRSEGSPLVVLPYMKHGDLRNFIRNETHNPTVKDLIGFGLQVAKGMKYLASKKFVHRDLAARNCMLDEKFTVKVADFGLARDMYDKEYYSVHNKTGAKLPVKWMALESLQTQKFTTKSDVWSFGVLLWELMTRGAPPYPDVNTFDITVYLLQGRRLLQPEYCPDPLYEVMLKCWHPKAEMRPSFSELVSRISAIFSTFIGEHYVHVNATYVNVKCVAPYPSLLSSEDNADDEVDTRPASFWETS
row,Binder,WC ELISA (fold over background)
1,AGWTWCDLSMMSCIFHGT [573-E07 peptide-displaying phage (SEQ ID NO: 025)],1.37 fold
2,AGFWDCGWMMQDCHMHGT [470-C02 peptide-displaying phage (SEQ ID NO: 045)],1.33 fold
3,AGKQWCVVWEETCDQLGT [465-F10 peptide-displaying phage (SEQ ID NO: 039)],1.33 fold
4,AGLLGCWDMPMECTGEGT [465-B11 peptide-displaying phage (SEQ ID NO: 036)],1.27 fold
5,AGIWFCNNEEKSCWAYGT [471-A11 peptide-displaying phage (SEQ ID NO: 040)],1.37 fold
6,AGGHWCLELKHLCPPYGT [465-B06 peptide-displaying phage (SEQ ID NO: 044)],1.23 fold
7,AGQMWCAEKNSKCYQWGT [465-D12 peptide-displaying phage (SEQ ID NO: 030)],1.27 fold
8,AGHFECPKHQYMCDMPGT [465-D04 peptide-displaying phage (SEQ ID NO: 042)],1.23 fold
9,GSMLMCELWWCRFLAP [569-H10 peptide-displaying phage (SEQ ID NO: 004)],1.27 fold
10,AGPLFCFEWPSLCHWGGT [448-H02 peptide-displaying phage (SEQ ID NO: 033)],1.43 fold
11,AGHTICQHKALGCPANGT [465-C07 peptide-displaying phage (SEQ ID NO: 041)],1.27 fold
12,AGPYSCHSESHDCKLMGT [465-C01 peptide-displaying phage (SEQ ID NO: 032)],1.27 fold
13,AGKTVCQKWESVCSGMGT [465-C11 peptide-displaying phage (SEQ ID NO: 038)],1.3 fold

# Biological target: T1, cMet-Fc fusion protein (extracellular …)
# Experiment: phage ELISA on cMet-Fc, competitor HGF 100 ng/mL
# Description: as §1
row,Binder,% of binding in the absence of HGF
1,AGWTWCDLSMMSCIFHGT [573-E07 peptide-displaying phage (SEQ ID NO: 025)],77%
2,AGFWDCGWMMQDCHMHGT [470-C02 peptide-displaying phage (SEQ ID NO: 045)],340%
3,AGKQWCVVWEETCDQLGT [465-F10 peptide-displaying phage (SEQ ID NO: 039)],61%
4,AGLLGCWDMPMECTGEGT [465-B11 peptide-displaying phage (SEQ ID NO: 036)],97%
5,AGIWFCNNEEKSCWAYGT [471-A11 peptide-displaying phage (SEQ ID NO: 040)],85%
6,AGGHWCLELKHLCPPYGT [465-B06 peptide-displaying phage (SEQ ID NO: 044)],89%
7,AGQMWCAEKNSKCYQWGT [465-D12 peptide-displaying phage (SEQ ID NO: 030)],34%
8,AGHFECPKHQYMCDMPGT [465-D04 peptide-displaying phage (SEQ ID NO: 042)],77%
9,GSMLMCELWWCRFLAP [569-H10 peptide-displaying phage (SEQ ID NO: 004)],98%
10,AGPLFCFEWPSLCHWGGT [448-H02 peptide-displaying phage (SEQ ID NO: 033)],113%
11,AGHTICQHKALGCPANGT [465-C07 peptide-displaying phage (SEQ ID NO: 041)],102%
12,AGPYSCHSESHDCKLMGT [465-C01 peptide-displaying phage (SEQ ID NO: 032)],267%
13,AGKTVCQKWESVCSGMGT [465-C11 peptide-displaying phage (SEQ ID NO: 038)],41%

# Biological target: T1, cMet-Fc fusion protein (extracellular …)
# Experiment: phage ELISA, cMet-Fc vs TRAIL-Fc
# Description: Protein phage ELISAs using peptide-displaying phage isolates from the various selection campaigns were performed to determine specificity of the peptides for cMet versus an unrelated Fc-fusion protein (TRAIL-Fe). Briefly, 384-well plates were coated overnight at 4 C with 0.5 μg/mL of cMet-Fc fusion protein or TRAIL-Fc fusion protein (background). The plates were blocked for 2 hours 37 C with 3% (w/v) BSA in PBS containing 0.05% (v/v) Tween-20 (PBST). The plates were washed with PBST and 100 μL of peptide-displaying phage were added to each well. The plates were incubated for 2 hours at room temperature and washed with PBST. cMet-binding peptide-displaying phage were detected using an HRP-conjugated anti-M13 antibody.
row,Binder,Protein ELISA (fold over background)
1,AGWTWCDLSMMSCIFHGT [573-E07 peptide-displaying phage (SEQ ID NO: 025)],3.2 fold
2,AGFWDCGWMMQDCHMHGT [470-C02 peptide-displaying phage (SEQ ID NO: 045)],3.9 fold
3,AGKQWCVVWEETCDQLGT [465-F10 peptide-displaying phage (SEQ ID NO: 039)],3.7 fold
4,AGLLGCWDMPMECTGEGT [465-B11 peptide-displaying phage (SEQ ID NO: 036)],3.6 fold
5,AGIWFCNNEEKSCWAYGT [471-A11 peptide-displaying phage (SEQ ID NO: 040)],3 fold
6,AGGHWCLELKHLCPPYGT [465-B06 peptide-displaying phage (SEQ ID NO: 044)],4.1 fold
7,AGQMWCAEKNSKCYQWGT [465-D12 peptide-displaying phage (SEQ ID NO: 030)],3.2 fold
8,AGHFECPKHQYMCDMPGT [465-D04 peptide-displaying phage (SEQ ID NO: 042)],3.1 fold
9,GSMLMCELWWCRFLAP [569-H10 peptide-displaying phage (SEQ ID NO: 004)],3.4 fold
10,AGPLFCFEWPSLCHWGGT [448-H02 peptide-displaying phage (SEQ ID NO: 033)],3.8 fold
11,AGHTICQHKALGCPANGT [465-C07 peptide-displaying phage (SEQ ID NO: 041)],3.1 fold
12,AGPYSCHSESHDCKLMGT [465-C01 peptide-displaying phage (SEQ ID NO: 032)],3.2 fold
13,AGKTVCQKWESVCSGMGT [465-C11 peptide-displaying phage (SEQ ID NO: 038)],3.1 fold
